This is an account of results in patent US20260029420A1, “ANTI-CB2 ANTIBODIES AND THEIR USE IN A FLOW CYTOMETRY ASSAY TO MEASURE CELL SURFACE CB2 EXPRESSION” (Hoffmann-La Roche Inc., priority 2022, published 2026).

Assay type in all cases: binding
One assay deals with T1, pANITA3.1 hCB2 (JB175) (Homo sapiens, UniProt P34972).
T1 construct: expressed in transfected cells; host or cells: HEK293
The assay is described as follows: Western blot of cell lysates. Also on record: key to Western Blot signal intensity: “−” no signal; “+”-“+++++” signal intensity; “+”-“+++++” signal intensity; “+”-“+++++” signal intensity; “+”-“+++++” signal intensity; “+”-“+++++” signal intensity. The procedure: (§1) The positive clones (Table 1) were further characterized by immunofluorescence (IF; Table 2), Western Blot (Table 3, 1) and Immune precipitation (Table 4, 2) on full length hCB2, hCB1, mCB2 stable-transfected CHO-cell lines in addition to the 2 pANITA constructs.
(§2) For Western blot analysis, cells were collected using enzyme free dissociation buffer (Cell dissociation buffer enzyme-free Hanks'-based, Gibco), and washed two times with PBS. To prepare cell lysate, 10^6 cells were lysed with 0.1 ml of lysis buffer (1% NP40, 10% glycerol, 2 mM EDTA, 137 mM NaCl, 20 mM TrisHCl, pH8, Protease Inhibitors) for 10 min on ice. The lysate was cleared by centrifugation at 20′000 g for 5 min. For SDS-PAGE cell lysate was resolved on precast 4-12% gradient gels (NuPAGE® Novex 4-12% Bis-Tris Gel, Invitrogen) with MES running buffer according to the manufacturer's directions. The separation of proteins was visualized by Colloidal Blue staining. The proteins were electrophoretically transferred to nitrocellulose membrane using a dry-blotting system (iBlot, Invitrogen). After blocking the membrane for 16 h in blocking buffer (5% Milk in PBS) at 4° C., specific proteins were detected with appropriate dilutions of mAbs in blocking buffer for 1 h at approximately 20° C. The membrane was then washed four times for 5 minutes in blocking buffer and incubated with horseradish peroxidase conjugated anti-mouse IgG mAb (GAM/IgG (g-chain)/HRP, Sigma, A9917) diluted 1:10'000 in blocking buffer at approximately 20° C. for 1 h. After washing again, blots were developed using ECL Western blotting detection reagents (ECL Western Blotting Substrate, Pierce) to visualize bands.
(§3) Expression of recombinant proteins in pANITA3.1 transfected cells was confirmed by Western blot analysis using anti-His tag antibodies. Cells expressing rat Glucose-dependent insulinotropic polypeptide receptor (GIPR), also a G-protein coupled receptor, were used as a negative control.

The target of another assay is T2, pANITA3.1 mCB2 (JB176) (Mus musculus, UniProt P47936).
T2 construct: expressed in transfected cells; host or cells: HEK293
Put plainly: Western blot of cell lysates. Details: key to Western Blot signal intensity: “−” no signal; “+”-“+++++” signal intensity; “+”-“+++++” signal intensity; “+”-“+++++” signal intensity; “+”-“+++++” signal intensity; “+”-“+++++” signal intensity. The procedure: as §1, §2, §3

Assay [1] concerns the target T3, cell surface CB2 on B-cells (Homo sapiens, UniProt P34972).
T3 construct: measured in whole blood samples from nine different healthy human volunteers of working-age; endogenous in cells; host or cells: B-cells (and basophils and other leukocytes) in human whole blood
Put plainly: Flow cytometry detection of baseline cell surface CB2 on B-cells in untreated whole blood. The settings on record: increasing antibody concentrations. The procedure:
FIG. 5A and FIG. 5B: Comparison of different anti-hCB2 antibodies in detecting cell surface CB2 expression on B-cells. FIG. 5A: Flow cytometric analysis with increasing concentrations of hCB2 antibody 1/622 (black dots) and hCB2 clone 352110 (R&D Systems; dark rectangle). A fluorescence minus one (FMO) serves as control as well as the secondary PE labeled antibody alone (0 μg antibody/sample). FIG. 5B: Flow cytometric analysis with increasing concentrations of mouse IgG3 isotype control clone B10 (SBA; open dots), hCB2 antibody 1/622 (black dots), mouse IgG2b isotype control clone 26114 (R&D Systems; open rectangles) and hCB2 clone 352110 (R&D Systems; dark rectangles). The secondary PE labeled antibody alone serves as 0 μg antibody/sample control.
Detection of baseline expression of cell surface CB2 on B-cells was assessed for clone 1/622 and compared to a commercially available hCB2 antibody (R&D Systems; clone 352110) (5). The flow cytometry experiment was performed as described in Example 3 yet using untreated whole blood samples and using increasing concentrations of the respective anti-human CB2 antibody. […]
For determination of cell surface expression of CB2 on B-cells, median fluorescent intensity (MFI) was analyzed by gating around the CD45^+ CD3^− CD14^− CD19^+ B-cells (see gating strategy in FIG. 6A to FIG. 6E) and acquiring a minimum of 2000 events in this gate (FIG. 6F). […]

T1 sequence (P34972 with tags, fused parts or gaps): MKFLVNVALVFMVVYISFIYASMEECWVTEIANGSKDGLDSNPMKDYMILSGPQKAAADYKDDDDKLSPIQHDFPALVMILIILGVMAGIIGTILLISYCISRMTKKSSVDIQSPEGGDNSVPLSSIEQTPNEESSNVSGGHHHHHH
T2 sequence (P47936 with tags, fused parts or gaps): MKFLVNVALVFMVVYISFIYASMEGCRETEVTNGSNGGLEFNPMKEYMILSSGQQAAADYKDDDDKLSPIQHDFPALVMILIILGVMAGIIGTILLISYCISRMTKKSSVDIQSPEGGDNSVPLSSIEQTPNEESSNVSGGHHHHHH
T3 sequence (P34972 whole entry): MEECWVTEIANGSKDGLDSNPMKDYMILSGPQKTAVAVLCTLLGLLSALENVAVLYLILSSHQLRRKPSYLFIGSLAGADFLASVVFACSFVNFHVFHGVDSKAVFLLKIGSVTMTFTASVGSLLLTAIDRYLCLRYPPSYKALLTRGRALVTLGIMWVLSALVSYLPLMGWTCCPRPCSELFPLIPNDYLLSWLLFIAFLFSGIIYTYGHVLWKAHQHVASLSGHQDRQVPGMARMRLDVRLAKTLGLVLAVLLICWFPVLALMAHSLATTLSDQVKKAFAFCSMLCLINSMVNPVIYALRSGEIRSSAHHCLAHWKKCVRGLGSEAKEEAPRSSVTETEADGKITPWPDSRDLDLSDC

B1: hCB2-1/622: murine IgG3 monoclonal anti-human CB2 antibody, VH SEQ ID NO: 1, VL SEQ ID NO: 2, HC SEQ ID NO: 3, LC SEQ ID NO: 4 (antibody)
heavy: EVQLQQSGPELVKPGASVKISCKTSGYTFTEYTMHWVRQSHGKSLEWIGGIDRYNGDTYYNQKFKDKATLTVDRSSSTAYMELRSLTSEDSAVYFCARNGAMDYWGQGISVTVSSATTTAPSVYPLVPGCSDTSGSSVTLGCLVKGYFPEPVTVKWNYGALSSGVRTVSSVLQSGFYSLSSLVTVPSSTWPSQTVICNVAHPASKTELIKRIEPRIPKPSTPPGSSCPPGNILGGPSVFIFPPKPKDALMISLTPKVTCVVVDVSEDDPDVHVSWFVDNKEVHTAWTQPREAQYNSTFRVVSALPIQHQDWMRGKEFKCKVNNKALPAPIERTISKPKGRAQTPQVYTIPPPREQMSKKKVSLTCLVTNFFSEAISVEWERNGELEQDYKNTPPILDSDGTYFLYSKLTVDTDSWLQGEIFTCSVVHEALHNHHTQKNLSRSPGK
light: DVVMTQTPLSLPVSLGDQASISCRSSQSLVHSNGNTYLHWFLQKPGQSPKLLIYKVSIRFSGVPDRFSGSGSGTDFTLKISRVEAEDLGVYFCSQSTHVPPLTFGAGTKLELKRADAAPTVSIFPPSSEQLTSGGASVVCFLNNFYPKDINVKWKIDGSERQNGVLNSWTDQDSKDSTYSMSSTLTLTKDEYERHNSYTCEATHKTSTSPIVKSFNRNEC
Turning to B1, the “Western blot detection” value in the assay with pANITA3.1 hCB2 (JB175) (hCB2) is recorded as “distinct band”; with pANITA3.1 mCB2 (JB176) (mCB2), “no mCB2, hCB1 or rat GIPR was detected”. Also, the figures for the “Western Blot signal intensity” value with pANITA3.1 hCB2 (JB175) (pANITA3.1 hCB2 (JB175) lysate) and in the assay with pANITA3.1 mCB2 (JB176) (pANITA3.1 mCB2 (JB176) lysate) were “+++” and “−”, respectively. In addition, the “Median fluorescence intensity on B-cells” value in assay [1] is on record as “dose-dependent increase”.
